Source: patent US20240336686A1 (ELPISCIENCE SUZHOU BIOPHARMA, published 2024)
Where two headings read alike, the source gives them in different places. Blank lines part the entries; values can stand above or below the binder they belong to.

Legend:
[1] = molecular target: T1, His tagged human SIRPα v1 ECD (human, UniProt P78324 31-373); assay: HDX-MS
T1 construct: extracellular domain; not shown: His tag

[2] = molecular target: T2, mFc tagged human SIRPα v1 ECD recombinant protein (human, UniProt P78324 31-373); assay: competitive ELISA; row antibody in excess in solution, coated mAb 042c
T2 construct: extracellular domain; not shown: mouse Fc tag
Protocol: (§1) Competitive ELISA assay was used for epitope binning of purified chimeric antibodies. Briefly excessive competitor antibody and mFc tagged human SIRPα v1 ECD recombinant protein were co-incubated with ELISA microplate coated antibody. After washing, HRP labeled anti-mouse Fc 2nd antibody (Sigma) was added and incubated at 37° C. for 1 hour. Then, 100 μl/well of TMB solution (Biotechnology) was added. After incubation for 15 minutes at room temperature, the reaction was stopped by the addition of 50 μl of 1N HCl. OD 450 nm was read. Competition ratio was calculated. The antibodies that can compete each other for binding to SIRPα may have related binding epitopes.

[3] = molecular target: T3, human SIRPα v1 on CHOK1 cells (human, UniProt P78324 31-504); assay: FACS, CHOK1 cells stably expressing human SIRPα v1
T3 construct: whole, on cells; also called CHOK1-hSIRPα v1; cell surface human SIRPα v1

[4] = molecular target: T4, human SIRPα v2 on CHOK1 cells (human, UniProt P78324 31-504); assay: FACS, CHOK1 cells stably expressing human SIRPα v2
T4 construct: whole, on cells; also called CHOK1-hSIRPα v2; cell surface human SIRPα v2

[5] = molecular target: T3, human SIRPα v1 on CHOK1 cells; assay: FACS, CHOK1 cells stably expressing human SIRPα v1; remark: listed apart in the source
Text: (§2) Binding activity of the purified chimeric antibodies against human SIRPα variants was detected by FACS assay using CHOK1 cells or 293F cells stably expressing human SIRPα v1 and CHOK1 cells stably expressing human SIRPα v2. […] EC₅₀ and top signal calculated using GraphPad Prism9.0.

[6] = molecular target: T3, human SIRPα v1 on CHOK1 cells; assay: competitive FACS, CHOK1 cells stably expressing human SIRPα v1; blocked ligand: mFc tagged human CD47 ECD
Protocol: (§3) Competitive FACS assay was also set up to further compare the blocking activity of the humanized antibodies and some known anti-SIRPα antibodies. Briefly antibody and mFc tagged human CD47 ECD recombinant protein were co-incubated with CHOK1 cells stably expressing human SIRPα v1 or human SIRPα v2. After washing, dye labeled anti-mouse Fc 2nd antibody (Sigma) was added and incubated at 37° C. for 1 hour. Fluorescence intensity was detected. Blocking ratio was determined by blockade of human CD47 ECD recombinant protein binding to SIRPα expressed CHOK1 cells.

[7] = molecular target: T5, human SIRPα v1 ECD recombinant protein (human, UniProt P78324 31-373); assay: competitive ELISA, plate-coated human SIRPα v1 ECD; blocked ligand: mFc tagged human CD47 ECD
T5 construct: extracellular domain; Coated on the ELISA plate
Protocol: (§4) Competitive ELISA assay was used to determine whether the purified chimeric antibodies can block CD47 and SIRPα interaction. Briefly, antibody and mFc tagged human CD47 ECD recombinant protein were co-incubated with ELISA microplate coated human SIRPα v1 ECD or human SIRPα v2 ECD recombinant protein. The concentration of soluble ECD of CD47 is 25 nM, and the concentration of soluble ECD of SIRPα is 20 nM. After washing, HRP labeled anti-mouse Fc 2nd antibody (Sigma) was added and incubated at 37° C. for 1 hour. Then, 100 μl/well of TMB solution (Biotechnology) was added. After incubation for 15 minutes at room temperature, the reaction was stopped by the addition of 50 μl of 1N HCl. OD 450 nm was read. Blocking ratio was determined by blockade of human SIRPα ECD recombinant protein binding to ELISA microplate coated human CD47 ECD recombinant protein. All antibodies as tested can block interaction between human CD47 and different human SIRPα variants.

[8] = molecular target: T5, human SIRPα v1 ECD recombinant protein; assay: as above; remark: listed apart in the source
Protocol: as §4
(§5) The humanized antibodies were tested for the ability to block CD47 and SIRPα interaction with competitive ELISA assay (refer to methods described above).

[9] = molecular target: T6, Human SIRPα v2 (human); assay: SPR (Biacore), 1:1 binding model
T6 construct: also called human SIRPα v2 (antigen of the Biacore assay)
Protocol: The humanized antibodies were characterized for binding affinity against human SIRPα v1, human SIRPα v2 using Surface Plasmon Resonance technology (Biacore system). The association and dissociation curves were fit with 1:1 binding model, and the Ka/Kd/KD values for each antibody were calculated.

[10] = molecular target: T2, mFc tagged human SIRPα v1 ECD …; assay: competitive ELISA; row antibody in excess in solution, coated mAb 025c
Protocol: as §1

[11] = molecular target: T5, human SIRPα v1 ECD recombinant protein; assay: competitive ELISA, plate-coated human SIRPα v1 ECD; blocked ligand: mFc tagged human CD47 ECD; remark: listed apart in the source
Protocol: as §4, with “ECD” for “ECD or human SIRPα v2 ECD”, “protein.” for “protein. The concentration of soluble ECD of CD47 is 25 nM, and the concentration of soluble ECD of SIRPα is 20 nM.”, “protein.” for “protein. All antibodies as tested can block interaction between human CD47 and different human SIRPα variants.”

[12] = molecular target: T7, Full length human SIRPα v1 with beta-gal fragment (ED) at its C-terminal, in K562 cells (human, UniProt P78324 31-504); assay: cell-based or functional assay
[13] = molecular target: T7, Full length human SIRPα v1 with …; assay: cell-based or functional assay; remark: listed apart in the source
[14] = molecular target: T2, mFc tagged human SIRPα v1 ECD …; assay: competitive ELISA; row antibody in excess in solution, coated mAb hu1H9G4
Protocol: as §1

[15] = molecular target: T8, human SIRPα v2 ECD recombinant protein (human); assay: competitive ELISA, plate-coated human SIRPα v2 ECD; blocked ligand: mFc tagged human CD47 ECD
T8 construct: extracellular domain; Coated on the ELISA plate
Protocol: as §4

[16] = molecular target: T4, human SIRPα v2 on CHOK1 cells; assay: FACS, CHOK1 cells stably expressing human SIRPα v2; remark: listed apart in the source
Text: as §2

[17] = molecular target: T4, human SIRPα v2 on CHOK1 cells; assay: competitive FACS, CHOK1 cells stably expressing human SIRPα v2; blocked ligand: mFc tagged human CD47 ECD
Protocol: as §3

[18] = molecular target: T8, human SIRPα v2 ECD recombinant protein; assay: competitive ELISA, plate-coated human SIRPα v2 ECD; blocked ligand: mFc tagged human CD47 ECD; remark: listed apart in the source
Protocol: as §4, §5

T2 sequence (P78324 31-373): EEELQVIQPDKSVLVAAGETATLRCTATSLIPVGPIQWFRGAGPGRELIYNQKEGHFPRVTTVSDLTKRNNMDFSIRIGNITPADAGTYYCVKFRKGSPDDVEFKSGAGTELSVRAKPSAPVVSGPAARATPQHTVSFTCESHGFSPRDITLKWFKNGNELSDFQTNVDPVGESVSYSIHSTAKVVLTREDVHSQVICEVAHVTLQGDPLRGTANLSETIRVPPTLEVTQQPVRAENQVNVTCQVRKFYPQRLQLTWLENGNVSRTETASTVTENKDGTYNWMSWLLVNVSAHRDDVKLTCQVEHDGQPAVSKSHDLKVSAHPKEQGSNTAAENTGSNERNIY
T5 sequence (P78324 31-373): as above
T3 sequence (P78324 31-504): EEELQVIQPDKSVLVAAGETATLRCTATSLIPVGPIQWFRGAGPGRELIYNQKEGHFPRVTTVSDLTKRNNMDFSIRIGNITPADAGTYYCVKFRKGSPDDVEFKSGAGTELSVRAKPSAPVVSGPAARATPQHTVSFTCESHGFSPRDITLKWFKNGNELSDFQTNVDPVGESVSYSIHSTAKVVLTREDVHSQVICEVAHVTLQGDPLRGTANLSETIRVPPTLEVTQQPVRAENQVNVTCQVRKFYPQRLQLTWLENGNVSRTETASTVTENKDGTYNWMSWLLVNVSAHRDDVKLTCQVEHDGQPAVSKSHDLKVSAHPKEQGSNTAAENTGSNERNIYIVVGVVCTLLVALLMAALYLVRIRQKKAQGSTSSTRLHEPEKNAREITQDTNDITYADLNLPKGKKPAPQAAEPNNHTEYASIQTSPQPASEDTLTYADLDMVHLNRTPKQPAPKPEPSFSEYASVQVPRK
T7 sequence (P78324 31-504): as above
T4 sequence (P78324 other isoform, or with tags, fused parts or gaps limits assumed): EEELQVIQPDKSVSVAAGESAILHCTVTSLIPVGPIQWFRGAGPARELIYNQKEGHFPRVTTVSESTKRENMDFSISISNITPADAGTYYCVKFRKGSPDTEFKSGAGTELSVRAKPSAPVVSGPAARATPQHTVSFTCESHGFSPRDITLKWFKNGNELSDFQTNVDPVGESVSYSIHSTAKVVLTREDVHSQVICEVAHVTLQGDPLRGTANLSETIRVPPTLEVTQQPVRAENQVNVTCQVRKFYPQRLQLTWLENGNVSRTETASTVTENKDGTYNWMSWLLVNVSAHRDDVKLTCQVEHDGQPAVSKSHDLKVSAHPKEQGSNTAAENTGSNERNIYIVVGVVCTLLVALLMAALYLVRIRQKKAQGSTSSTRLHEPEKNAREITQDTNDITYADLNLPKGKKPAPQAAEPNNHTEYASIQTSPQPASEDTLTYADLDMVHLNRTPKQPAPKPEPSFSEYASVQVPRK
T1 sequence (P78324 31-373): as the sequence (P78324 31-373) above

- binding result [1]: binds
B1: Reference anti-SIRPα antibody HEFLB (antibody, human IgG4, V domains shown)
VH: EVQLVQSGAEVKKPGESLRISCKASGYSFTSYWVHWVRQMPGKGLEWMGNIDPSDSDTHYSPSFQGHVTLSVDKSISTAYLQLSSLKASDTAMYYCVRGGTGTLAYFAYWGQGTLVTVSS
VL: DVVMTQSPLSLPVTLGQPASISCRSSQSLVHSYGNTYLYWFQQRPGQSPRLLIYRVSNRFSGVPDRFSGSGSGTDFTLKISRVEAEDVGVYYCFQGTHVPYTFGGGTKVEIK

- % Competition [2]: 19.1%
- EC50 [3]: 1.22 nM
- TOP MFI [3]: 64700 MFI
- EC50 [4]: 0.99 nM
- TOP MFI [4]: 53000 MFI
- EC50 [5]: 1.49 nM
- TOP MFI [5]: 77600 MFI
- IC50 [6]: 0.4 nM
- TOP blocking [6]: 97.6%
- IC50 [7]: 2.12 nM
- TOP blocking [7]: 96.5%
- IC50 [8]: 2.03 nM
- TOP blocking [8]: 97.5%
- Kd [9]: 1.69 nM
- koff [9]: 0.00254 s⁻¹
- kon [9]: 1.51e+06 M⁻¹ s⁻¹
- % Competition [10]: 93.5%
- IC50 (read off the curve) [11]: ~2 nM
- IC50 (SHP-1 recruitment blocking) [12]: 0.28 nM
- TOP blocking (SHP-1 recruitment) [12]: 84.5%
- IC50 (SHP-1 recruitment blocking) [13]: 0.08 nM
- TOP blocking (SHP-1 recruitment) [13]: 87%
- % Competition [14]: 15.3%
- IC50 [15]: 2.21 nM
- TOP blocking [15]: 96.5%
- EC50 [16]: 1.34 nM
- TOP MFI [16]: 51600 MFI
- IC50 [17]: 0.63 nM
- TOP blocking [17]: 99.7%
- IC50 [18]: 1.86 nM
- TOP blocking [18]: 98.6%
B2: Anti-SIRPα antibody C25 (antibody, V domains shown)
VH: EVQLQQSGAELVKPGASVKLSCTASGFNIKDYYMHWVKQRTEQGLEWIGRIDPEDGETKYAPKFQGKATITADTSSNTAYLQLSSLTSEDTAVYYCDRGLAYWGQGTLVTVSA
VL: QIVLTQSPAIMSASPGEKVTLTCSASSSVSSSYLYWYQQKPGSSPKLWIYSTSNLASGVPARFSGSGSGTSYSLTISSMEAEDAASYFCHQWSSYPYTFGGGTKLEIK
notes: Mouse variable regions; also called 025c; 025
